Measurements reported in publication PMC10733476, “OsDWARF10, transcriptionally repressed by OsSPL3, regulates the nutritional metabolism of polished rice”.

Biological target: T1, OsSPL3 (Oryza sativa (indica, Minghui63; stated …, UniProt A2X0Q6 1-469)
T1 sequence: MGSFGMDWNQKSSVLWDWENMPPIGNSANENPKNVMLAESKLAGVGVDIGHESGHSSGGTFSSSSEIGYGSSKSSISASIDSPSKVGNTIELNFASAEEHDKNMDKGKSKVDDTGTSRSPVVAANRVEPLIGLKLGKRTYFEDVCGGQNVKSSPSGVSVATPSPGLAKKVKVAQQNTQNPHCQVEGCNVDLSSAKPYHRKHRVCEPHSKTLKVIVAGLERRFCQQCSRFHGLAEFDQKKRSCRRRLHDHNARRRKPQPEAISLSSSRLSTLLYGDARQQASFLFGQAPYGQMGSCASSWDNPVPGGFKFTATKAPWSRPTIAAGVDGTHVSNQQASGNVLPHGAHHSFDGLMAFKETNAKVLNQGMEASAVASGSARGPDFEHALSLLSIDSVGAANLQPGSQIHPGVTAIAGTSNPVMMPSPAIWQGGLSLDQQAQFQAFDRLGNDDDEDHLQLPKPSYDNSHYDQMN
Assay: EMSA; EMSA binding buffer (as printed, probably a concentrated stock): 125 mM Tris-HCl pH 8.0, 750 mM NaCl, 25 mM MgCl2, 100 mg/mL BSA, 50% glycerol, 5 mM DTT, 125 ng/uL salmon sperm DNA; 25 C, 20 min; 6% PAGE in 0.5x TG
Details: protein: recombinant; tags: N-terminal 6xHis (pET28A); label: 5' FAM on F strand; blunt

B1: D10 S2 (dsDNA)
DNA 1: CCACGCCCCACGTAACGTAGCGTACAGTGTACACCTGATTTCGCTCGGTC
DNA 2: GACCGAGCGAAATCAGGTGTACACTGTACGCTACGTTACGTGGGGCGTGG
B1: binds.

B2: D10 S1 (dsDNA)
DNA 1: CTCACACATGCTACTGATGATGTACGTACGGACGTTACGTAGCGCGCGGG
DNA 2: CCCGCGCGCTACGTAACGTCCGTACGTACATCATCAGTAGCATGTGTGAG
B2: binds.
